Test results: US9884093B2 (Eli Lilly and Company, priority 2015, dated 2018)
Like-named read-outs stand apart in the source and are kept apart here.

Experiments:
[1] = biological target: T1, human glucagon receptor (hGcg-R) (Homo sapiens, UniProt P47871); test: hGcg-R functional cAMP assay; format: cell-based; settings: read-out: EC50 Gcg Receptor Assay
T1 construct: expressed in transfected cells; host or cells: 293HEK cells, hygromycin-selected

[2] = Stability in co-formulation with GLP-1R agonist (SEC-HPLC, RP-HPLC); format: physicochemical; settings: four weeks
Experimental: Examples 1 and 3 are prepared and dialyzed against C6.5 (10 mM Citrate pH 6.5) using the same method as described above for preparation into T7 buffer. Compounds are formulated separately at 1 mg/mL peptide in buffer C6.5, C6.5M (10 mM Citrate, 46.4 mg/mL D-mannitol, pH 6.5), C6.5T (10 mM Citrate, 0.02% polysorbate-80, pH 6.5), and C6.5MT (10 mM Citrate, 46.4 mg/mL D-mannitol, 0.02% polysorbate-80, pH 6.5). A stock concentration of 46.5 mg/mL of dulaglutide in C6.5 is used to formulate dulaglutide at 3 mg/mL in C6.5 and C6.5MT. Co-formulations in C6.5MT are prepared having 3 mg/mL dulaglutide and 1 mg/mL Example 1, or 3 mg/mL dulaglutide and 1 mg/mL Example 3. Each formulated sample is transferred to three vials and maintained at 4° C., 25° C. and 40° C. Samples are assessed every two weeks for a total of four weeks. Samples are visually assessed for turbidity and phase separation. Stability is assessed by RP-HPLC and SEC-HPLC as described above. Both described HPLC methods give good separation of Example compounds and dulaglutide main peaks as well as all degradation peaks produced by stressing the sample at pH 9 and 40° C. for 3 days.

[3] = biological target: T2, glucose-dependent insulinotropic polypeptide receptor, hGIP-R (Homo sapiens, UniProt P48546); test: hGIP-R functional cAMP assay; settings: read-out: EC50 GIP Receptor Assay
T2 sequence (P48546 22-466): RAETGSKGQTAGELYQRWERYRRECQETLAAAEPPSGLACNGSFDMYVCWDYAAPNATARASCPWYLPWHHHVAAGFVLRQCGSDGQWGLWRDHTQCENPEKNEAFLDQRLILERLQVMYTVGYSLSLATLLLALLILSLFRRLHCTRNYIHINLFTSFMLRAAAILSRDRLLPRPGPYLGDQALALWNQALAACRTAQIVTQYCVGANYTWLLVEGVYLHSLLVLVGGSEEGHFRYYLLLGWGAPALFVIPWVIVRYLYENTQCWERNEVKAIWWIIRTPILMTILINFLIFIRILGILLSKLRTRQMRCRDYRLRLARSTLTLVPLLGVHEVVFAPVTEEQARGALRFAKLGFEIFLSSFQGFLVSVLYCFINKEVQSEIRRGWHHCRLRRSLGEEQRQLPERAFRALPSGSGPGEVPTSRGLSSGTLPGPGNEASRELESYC
Experimental: (§1) The hGIP-R functional assay uses hGIP-R (Usdin, T. B., Gruber, C., Modi, W. and Bonner, T. I., GenBank: AAA84418.1) cloned into pcDNA3.1 (Promega)-NeoR plasmid. The hGIP-R-pcDNA3.1/Neo plasmid is transfected into Chinese Hamster Ovary cells, CHO-S, for suspension cultures and selected in the presence of 500 μg/mL Geneticin (Invitrogen).

[4] = biological target: human Glucagon-Like Peptide-1 receptor (hGLP-1-R) (Homo sapiens, UniProt P43220); test: hGLP-1-R functional cAMP assay; settings: read-out: EC50 GLP-1 Receptor Assay
Chain of human Glucagon-Like Peptide-1 receptor (hGLP-1-R) (P43220 24-463): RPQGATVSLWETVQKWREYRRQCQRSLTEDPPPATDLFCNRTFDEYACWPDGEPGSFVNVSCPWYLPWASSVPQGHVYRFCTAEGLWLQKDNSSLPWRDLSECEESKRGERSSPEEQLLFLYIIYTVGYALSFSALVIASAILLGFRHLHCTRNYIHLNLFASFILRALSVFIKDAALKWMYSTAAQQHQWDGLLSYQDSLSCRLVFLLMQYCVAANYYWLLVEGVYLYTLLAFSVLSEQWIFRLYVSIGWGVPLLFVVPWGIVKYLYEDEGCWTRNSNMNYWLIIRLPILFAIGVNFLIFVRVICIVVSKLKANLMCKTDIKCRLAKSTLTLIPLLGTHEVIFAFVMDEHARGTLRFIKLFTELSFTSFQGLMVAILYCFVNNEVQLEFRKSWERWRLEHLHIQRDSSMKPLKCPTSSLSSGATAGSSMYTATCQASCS
Experimental: as §1

T1 sequence (P47871 26-477): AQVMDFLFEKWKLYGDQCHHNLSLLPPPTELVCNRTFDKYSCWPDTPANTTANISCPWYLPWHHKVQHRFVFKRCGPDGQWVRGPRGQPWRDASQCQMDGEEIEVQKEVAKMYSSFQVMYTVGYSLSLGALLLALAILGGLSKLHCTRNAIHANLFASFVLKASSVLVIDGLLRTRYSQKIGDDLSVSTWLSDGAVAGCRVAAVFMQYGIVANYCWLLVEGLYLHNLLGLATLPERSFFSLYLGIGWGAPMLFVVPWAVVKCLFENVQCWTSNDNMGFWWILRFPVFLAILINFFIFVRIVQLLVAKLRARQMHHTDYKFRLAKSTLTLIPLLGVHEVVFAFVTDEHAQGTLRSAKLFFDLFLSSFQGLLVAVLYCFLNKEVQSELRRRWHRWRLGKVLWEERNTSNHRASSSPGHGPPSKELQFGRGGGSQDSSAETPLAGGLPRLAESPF

Question: Which results are given for dulaglutide?
Answer: EC50 ([1]; sample C6.5-4 C.-4 wk): 0.0519 ± 0.0681 µM; EC50 ([1]; sample C6.5-40 C.-4 wk): > 0.1 µM; EC50 ([1]; sample C6.5MT-4 C.-4 wk): 0.054 ± 0.065 µM; EC50 ([1]; sample C6.5MT-40 C.-4 wk): > 0.1 µM; GLP-1-Fc Δ % Main Peak ([2]; RP-HPLC, C6.5, 4° C.): −1.45%; GLP-1-Fc Δ % Main Peak ([2]; RP-HPLC, C6.5, 25° C.): >−10%; GLP-1-Fc Δ % Main Peak ([2]; RP-HPLC, C6.5, 40° C.): −9.96%; GLP-1-Fc Δ % Main Peak ([2]; RP-HPLC, C6.5MT, 4° C.): −0.46%; GLP-1-Fc Δ % Main Peak ([2]; RP-HPLC, C6.5MT, 25° C.): −0.8%; GLP-1-Fc Δ % Main Peak ([2]; RP-HPLC, C6.5MT, 40° C.): −7.47%; GLP-1-Fc Δ % Main Peak ([2]; SEC-HPLC, C6.5, 4° C.): 0.19%; GLP-1-Fc Δ % Main Peak ([2]; SEC-HPLC, C6.5, 25° C.): −0.54%; GLP-1-Fc Δ % Main Peak ([2]; SEC-HPLC, C6.5, 40° C.): >−10%; GLP-1-Fc Δ % Main Peak ([2]; SEC-HPLC, C6.5MT, 4° C.): 0.29%; GLP-1-Fc Δ % Main Peak ([2]; SEC-HPLC, C6.5MT, 25° C.): −0.87%; GLP-1-Fc Δ % Main Peak ([2]; SEC-HPLC, C6.5MT, 40° C.): −0.83%; EC50 ([3]; sample C6.5-4 C.-4 wk): > 0.1 µM; EC50 ([3]; sample C6.5-40 C.-4 wk): > 0.1 µM; EC50 ([3]; sample C6.5MT-4 C.-4 wk): > 0.1 µM; EC50 ([3]; sample C6.5MT-40 C.-4 wk): > 0.1 µM; EC50 ([4]; sample C6.5-4 C.-4 wk): 0.00037 ± 0.00011 µM; EC50 ([4]; sample C6.5-40 C.-4 wk): 0.00031 ± 0.00017 µM; EC50 ([4]; sample C6.5MT-4 C.-4 wk): 0.0004 ± 0.00014 µM; EC50 ([4]; sample C6.5MT-40 C.-4 wk): 0.00029 ± 9e-05 µM
